Tests used:
[1] = biological target: MBP-His6-GCN4-Dimer; assay: SEC-MALS; FPLC coupled with static light scattering; Superose 12 10/300 GL; 50 mM Tris pH 8.2, 100 mM NaCl, 1 mM EDTA, 2 mM DTT; loading concentration not shown
[2] = biological target: the molecule itself; assay: SEC-MALS; FPLC coupled with static light scattering; Superose 12 10/300 GL; 50 mM Tris pH 8.2, 100 mM NaCl, 1 mM EDTA, 2 mM DTT; loading concentrations 30 μM and 150 μM

MBP-His6-GCN4-Dimer
stoichiometry N [1]: 2

B1: PrLD-SAMWT fusion protein (FUS PrLD fused to the Shank3 SAM domain; MBP-PrLD-SAMWT-GB1) (other, UniProt P56959 1-212, looked up)
chain: CMASNDYTQQATQSYGAYPTQPGQGYSQQSSQPYGQQSYSGYGQSADTSGYGQSSYGSSYGQTQNTGYGTQSAPQGYGSTGGYGSSQSSQSSYGQQSSYPGYGQQPAPSSTSGSYGGSSQSSSYGQPQSGGYGQQSGYGGQQQSYGQQQSSYNPPQGYGQQNQYNSSSGGGGGGGGGNYGQDQSSMSGGGGGGGYGNQDQSGGGGGGYGGGQQGPRRPFQQKPLQLWSKFDVGDWLESIHLGEHRDRFEDHEIEGAHLPALTKEDFVELGVTRVGHRMNIERALRQLDGS
notes: FUS prion-like domain (PrLD), UniProt P56959, segment 1-212; SAM domain of Shank3 (aa 1654-1730), UniProt Q4ACU6, fused to the C-terminal end of PrLD; The light-scattering legend calls it only 'PrLD-SAMWT fusion protein (theoretical MW 80.7 kDa)'; also called PrLD-SAM chimera; source: E. coli BL21 (DE3), purified (Ni2+-NTA, size-exclusion chromatography); not shown: MBP, N-terminal, kept; GB1, …
binding result [2]: binds

— publication PMC10264073, “Biological condensates form percolated networks with molecular motion properties distinctly different from dilute solutions” (eLife, 2023)
